# In US12068729:
# pKd: −log10 of the molar value.
# What was measured:
# [1] = target: human Factor XII (FXII), Enzyme Research Laboratories Cat #1212 (human); experiment: SPR Biacore, mAb captured by anti-hFc, 25 C
# [2] = target: human activated Factor XII (FXIIa), Enzyme Research Laboratories Cat #1212a (human); experiment: SPR Biacore, mAb captured by anti-hFc, 25 C
# [3] = target: human Factor XII (FXII), Enzyme Research Laboratories Cat #1212 (human); experiment: SPR Biacore, mAb captured by anti-hFc, 37 C
# [4] = target: human activated Factor XII (FXIIa), Enzyme Research Laboratories Cat #1212a (human); experiment: SPR Biacore, mAb captured by anti-hFc, 37 C
100 nM Ag Bound (RU) [1],100 nM Ag Bound (RU) [2],pKd [2],koff [2],kon [2],t½ [2],100 nM Ag Bound (RU) [3],100 nM Ag Bound (RU) [4],pKd [4],koff [4],kon [4],t½ [4],pKd [1],koff [1],kon [1],t½ [1],pKd [3],koff [3],kon [3],t½ [3],Substance
9.5 RU,297 RU,8.60,0.000996 s⁻¹,392000 M⁻¹ s⁻¹,11.6 min,9.9 RU,312 RU,8.08,0.00515 s⁻¹,624000 M⁻¹ s⁻¹,2 min,,,,,,,,,"Comparator 1, a monoclonal antibody against human FXII/FXIIa having VH/VL sequences of antibody 3F7 according to U.S. Pat. No. 9,518,127 (CSL Behring GmbH)"
86.1 RU,197 RU,8.53,0.00451 s⁻¹,1.54e+06 M⁻¹ s⁻¹,2.6 min,83.8 RU,187 RU,8.56,0.02 s⁻¹,7.25e+06 M⁻¹ s⁻¹,1 min,7.43,0.00247 s⁻¹,66100 M⁻¹ s⁻¹,4.7 min,7.34,0.0542 s⁻¹,1.2e+06 M⁻¹ s⁻¹,0 h,"Comparator 2, a human monoclonal antibody against human FXII having VH/VL sequences of antibody 15H8 according to U.S. Pat. No. 9,574,013 (Vanderbilt Univ./Aronora)"
10 RU,0.1 RU,,,,,10.3 RU,-2.7 RU,,,,,,,,,,,,,Isotype control (antibody)
